Among the data in publication PMC7072298 are Kd of FN45 relative to that of FN30 (fold higher) and Kd values, retold here.

Assay [1] concerns the target HSP90αM domain (solid phase assays of Figure 2B and 2C). As to the kind of experiment: ELISA; solid phase protein–protein interaction assay, dose-dependent; HSP90M domain (100 µg/mL) coated on plate, FN 30, 45, 70 and 120 kDa fragments at varying concentrations in solution.
Assay [2] concerns the target glucocorticoid receptor LBD (Homo sapiens) (UniProt P04150). Conditions: cited from earlier work.
The target in another assay is Tau (Homo sapiens) (UniProt P10636). Conditions: cited from earlier work.
Sequence of Tau (Homo sapiens) (P10636 2-758): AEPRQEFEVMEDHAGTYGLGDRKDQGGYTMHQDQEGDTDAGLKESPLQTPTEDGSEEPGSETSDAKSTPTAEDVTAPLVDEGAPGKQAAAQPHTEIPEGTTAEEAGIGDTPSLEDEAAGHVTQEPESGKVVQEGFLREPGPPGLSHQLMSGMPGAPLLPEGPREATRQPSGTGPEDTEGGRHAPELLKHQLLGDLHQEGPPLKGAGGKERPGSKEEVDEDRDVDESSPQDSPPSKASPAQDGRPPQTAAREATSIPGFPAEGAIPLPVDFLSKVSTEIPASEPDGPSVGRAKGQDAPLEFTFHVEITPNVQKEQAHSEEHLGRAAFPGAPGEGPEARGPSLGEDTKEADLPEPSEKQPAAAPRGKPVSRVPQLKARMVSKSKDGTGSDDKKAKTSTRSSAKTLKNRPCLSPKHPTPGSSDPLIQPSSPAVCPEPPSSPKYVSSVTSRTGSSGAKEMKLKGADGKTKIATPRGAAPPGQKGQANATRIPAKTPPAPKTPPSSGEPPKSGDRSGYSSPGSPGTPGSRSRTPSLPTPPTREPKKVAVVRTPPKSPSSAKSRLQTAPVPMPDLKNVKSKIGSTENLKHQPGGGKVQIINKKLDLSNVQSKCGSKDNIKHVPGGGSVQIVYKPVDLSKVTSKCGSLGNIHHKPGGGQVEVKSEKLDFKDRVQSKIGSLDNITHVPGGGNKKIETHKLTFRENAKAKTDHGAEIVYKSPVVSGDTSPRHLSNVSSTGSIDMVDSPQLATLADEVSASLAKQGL

pKd: −log10 of the molar value.

Sequence of glucocorticoid receptor LBD (Homo sapiens) (P04150 523-777): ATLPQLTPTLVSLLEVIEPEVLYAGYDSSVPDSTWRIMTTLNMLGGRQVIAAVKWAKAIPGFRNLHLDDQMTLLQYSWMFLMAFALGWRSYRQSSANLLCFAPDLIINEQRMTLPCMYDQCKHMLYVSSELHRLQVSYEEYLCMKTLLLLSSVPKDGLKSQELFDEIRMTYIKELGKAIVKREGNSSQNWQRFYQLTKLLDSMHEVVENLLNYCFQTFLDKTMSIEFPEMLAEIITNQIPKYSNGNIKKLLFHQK

As to “45-kDa gelatin-binding FN fragment (FN45) (domain or fragment)”, the Kd of FN45 relative to that of FN30 (fold higher) in assay [1] was determined as 3 fold.
Consider “70-kDa N-terminal FN fragment (FN70) (domain or fragment)”, for which the pKd (commonly the negative decadic logarithm of the Kd, by convention in mol/L) in assay [1] was 6.30.
For HSP90 (from UniProt P02829), the pKd in assay [2] was 6.10.
With HSP90 (from UniProt P07900), the pKd with Tau (Homo sapiens) was 5.32.
For the substance “N-terminal FN 30-kDa heparin-binding fragment (FN30) (domain or fragment)”, the pKd in assay [1] is 7.15.
